# Key:
# Assay type in all cases: biochemical
# Details in all cases: pH 8.0, RT, 405 nm
# [1] = Activity determination and kinetic constants with chromogenic substrate Chromozym TH
# Method: (§1) The activity of the renatured activated rFXTa proteases was determined with the chromogenic substrates Chromozym® X (N-methoxycarbonyl-D-Nle-Gly-Arg-pNA, Boehringer Mannheim GmbH, Mannheim, Cat. No. 789763), Chromozym® U (Bz-β-Ala-Gly-Arg-pNA, Boehringer Mannheim GmbH, Mannheim, Cat. No.836583), Chromozym® PK (Bz-Pro-Phe-Arg-pNA, Boehringer Mannheim GmbH, Mannheim, Cat. No. 378445) and Chromozym® TH (Tosyl-Gly-Pro-Arg-pNA, Boehringer Mannheim GmbH, Mannheim, Cat. No. 838268) in comparison with recombinant rFXa (rFX-EGF2-AP-CD; preparation and description see PCT/EP97/03027) and native human trypsin (Sigma-Aldrich Chemie GmbH, Deisenhofen, Germany, Cat. No. T6424). Abbreviations: Bz, benzoyl; pNA, p-nitroaniline.
# (§2) 10-100 μl sample was filled up to 200 μl with 190-100 μl 50 mmol/l Tris-HCl, 150 mmol/l NaCl, 5 mmol/l CaCl2, 0.1% PEG 8000, pH 8.0 and 20 μl Chromozym® X, U, PK and TH (0.5-40 mmol/l) were added to and measured against a reagent blank value in an ELISA reader at a wavelength of 405 nm and RT. The activity and the kinetic constants were determined from the linear initial slope according to the Michaelis Menten equation.
# [2] = Activity determination and kinetic constants with chromogenic substrate Chromozym U
# Method: as §1, §2
# [3] = Activity determination and kinetic constants with chromogenic substrate Chromozym PK
# Method: as §1, §2
# [4] = Activity determination and kinetic constants with chromogenic substrate Chromozym X
# Method: as §1, §2
substance,measurement,setting,value
"trypsin: native human trypsin (Sigma-Aldrich, Cat. No. T6424)",Km,[1],13 µM
same,kcat,[1],95 s⁻¹
same,Km,[2],208 µM
same,kcat,[2],225 s⁻¹
same,Km,[3],17 µM
same,kcat,[3],38 s⁻¹
same,Km,[4],43 µM
same,kcat,[4],153 s⁻¹

# — patent US6660492B1, “Chimeric serine proteases” (Boehringer Mannheim GmbH, priority 1997, dated 2003)
